# Experimental data as given in patent US6379959B1, “Metalocarboxypeptidase inhibitors and derived molecules used as antitumor agents” (Universitat Autonoma de Barcelona, priority 1996, dated 2002).
# Values joined by “and” are separate entries in the source; they are usually repeats but may differ in a detail not shown here. Equal values may be shown once. Read-outs that look alike come from different tables or passages of the source. Positions of bridges follow the written chain, without caps; N, C: chain ends. No end group written: not given here.
# Legend:
# [1] = system: p53; test: Gene expression analysis by Northern transfer, p53 probe; type: cell-based, human; details: for beta counts, p53 probe: 12 days, Capan-1 (control 138)
# Procedure: To verify whether the PCI plays any role in signal transduction, studies of gene expression were carried out by Northern transfer. The probes were: β2-microglobulin, p53 and trypsin. The β2-microglobulin is a constitutive gene that is used as a sample loading control in the gel. p53 is a transcription factor which, among other functions, controls the state of the genomic DNA and the cell cycle (Bates, S. & Vousden, K. H. (1996) Curr. Opin. Genet. Develop., 6: 12-19). If the DNA is damaged, p53 induces its repair and, if it is excessively damaged, it provokes programmed cellular death (apoptosis). Trypsin is a marker of pancreatic cells of the acinar type. The trypsin is not expressed by all the tumoral cells and it is believed that it is expressed by the cells with metastatic power and/or invasive power (Fernández, E. et al., (1994) Cancer, 73: 2285-2295). The probes employed are described as follows:
# In the first place, 3×10^6 cells of the human pancreatic adenocarcinoma cell line Capan-1 were placed in each one of the 12 flasks of 150 cm^2. […] They were maintained in culture for 12 days period, changing their medium every 4 days, adding fresh PCI. Once the treatment was completed, the cells were trypsinized and the sediment of the cells was kept at −80° C. Afterwards, the extraction of the RNA was carried out.
# The quantifying of the hybridized filters with the respective probes was done using a Betascope 601 blot Analyzer counter (Betagen, USA). The counting time was 45 min for the hybridized filter with the probe p53 and β2-microglobuline and 2 h for the trypsin probe.
# Assuming that the counts of the β2-Microglobuline are an indication of the total amount of poly(A^+) RNA, the data may be standardized as a percentage of counts of the band compared to the β2-microglobuline counts of the same cells, giving a value which depends on the abundance of the specific mRNA in relation to the total of mRNA.
# [2] = molecular target: T1, EGF receptor (Homo sapiens, UniProt P00533); test: Kinase activity (phosphorilation) of the EGF receptor, Capan-1 cells; type: cell-based; parameters: endogenous in cells; host or cells: Capan-1 (human pancreatic adenocarcinoma)
# Procedure: (§1) The material and protocol used have been those described by Donato, N. J. et al. (1989) J. Cell. Biochem., 41: 139-157.
# (§2) 1.c. Wash the cells twice more with tempered PBS and add new serum-free medium. Immediately after, add PCI to the concentration which is going to be studied in the cultures to be treated and incubate for 10 min at 37° C.
# (§3) 2.a. […] Incubate for 1 h in ice.
# (§4) 3.a. Prepare the reaction buffer. Each sample requires 50μL.
# (§5) 3.k. Dry the gel (for at least 3 h) and autoradiograph it for 10 min for the A431 cell line and 2-4 h for the Capan-1 cell line. Count the radiactivity of the filter using a beta counter.
# [3] = system: Capan-1 cell line; test: Proliferation of Capan-1 cells pretreated with PCI; type: cell-based, human; details: pretreatment 50 μg/mL of PCI, 28-34 days; treatment 5-18 days
# Procedure: In the case of the Capan-1 cell line, two different tests and which are described as follows were carried out:
# 1. 5,000 cells were seed in 2 wells of a plate of 12 wells. One of the wells was grown with medium (non-pretreated cells), and the other with medium with 50 μg/mL of PCI (pretreated cells). The cells were kept in such conditions for the period of time that is indicated in the results section as time of pretreatment.
# 2. Twice a week, the medium of the wells was replaced by fresh medium with or without PCI, and each time that in any of the wells confluence was reached, the cells were trypsinized and 1/10 of them was placed again in the original well, the other cells being discarded or frozen.
# 3. Once the desired time of pretreatment elapsed, the cells were trypsinized and counted, being employed to start proliferation tests such as those described in Section 4.B.2.1. The number of cells that was placed per well in the proliferation plate (of 96 wells) was 2,000, 7 replicas being put for each treatment. The cells underwent treatment with or without various PCI concentrations.
# 4. Once the treatment time elapsed, the number of cells per well was estimated as previously described in Section 4.B.2.a.
# [4] = system: Int-2 murine insulinoma cell line; test: Proliferation of Int-2 cells pretreated with PCI; type: cell-based; details: pretreatment 50 μg/mL of PCI, 7, 20 and 30 days; treatments 7, 8 and 5 days
# Procedure: The analysed cell lines were Capan-1, already described, and Int-2. This latter being a murine insulinoma cell line derived from transgenic mice developed in the lab of Dr. M. Frazier. The medium employed for the growth of both lines was DMEM+10%FBS and the culture techniques that were used were identical to those previously described. In the case of the Int-2 cell line, only proliferation tests were performed. They were carried out in the same way as that described in the case of Capan-1, with the unique difference that the number of cells that was put per well in the plate of 96 was 500 instead of 2,000.
# [5] = molecular target: T1, EGF receptor; test: Kinase activity (phosphorilation) of the EGF receptor, A431 cells; type: cell-based; parameters: endogenous in cells; host or cells: A431 (squamous cancer cell line)
# Procedure: as §1, §2, §3, §4, §5
# The kinase activity in absence of PCI (basal) is taken as 100% and the values of kinase activity have been compared in various concentrations of PCI in relation to this basal activity.
# [6] = system: human pancreatic adenocarcinoma cell line Panc-1; type: cell-based; details: SFM, 72 h
# [7] = basal, incubation with PCI 50 mg/mL, 10 min, 100% = absence of PCI
substance,measurement,setting,value
"PCI: potato carboxypeptidase inhibitor, isoform IIa, obtained by recombinant DNA techniques in E. coli (SEQ ID NO.2) (EQHADPICNKPCKTHDDCSGAWFCQACWNSARTCGPYVG; disulfide 12-27, 18-34, 8-24)",higher transcription of p53 in relation to the control group cells (treatment/control),[1]; 1 mg/mL PCI,2.8 times
same,p53/b2 (counts of one band in relation to those of β2-microglobuline),[1]; 1 mg/mL PCI (control 0.1445),0.4040
same,"beta counts, p53 probe",[1]; 1 mg/mL PCI,882
same,higher transcription of p53 in relation to the control group cells (treatment/control),[1]; 10 mg/mL PCI,1.2 times
same,"beta counts, p53 probe",[1]; 10 mg/mL PCI,1111
same,Kinase activity (%),[2]; 5 ng/mL EGF + 1 mg/mL PCI,180%
same,Kinase activity (%),[2]; 5 ng/mL EGF + 10 mg/mL PCI,170%
same,Kinase activity (%),[2]; 5 ng/mL EGF + 50 mg/mL PCI,120%
same,inhibition of the kinase activity induced by EGF,[2]; PCI concentration of 50 μg/mL,50%
same,Kinase activity (%),[2]; [7],70% and 88% and 90%
same,"final number of cells, pretreated cells cultivated afterwards in absence of PCI vs non-pretreated cells",[3],approximately half
same,growth of pretreated cells cultured later in the absence of the protein compared to non-pretreated cells,[4],approximately half
same,Kinase activity (%),[5]; 1 ng/ml EGF + 1 mg/mL PCI,126%
same,Kinase activity (%),[5]; 1 ng/ml EGF + 10 mg/mL PCI,108%
same,Kinase activity (%),[5]; 1 ng/ml EGF + 50 mg/mL PCI,53%
same,Kinase activity (%),"[5]; basal, incubation with PCI 1 mg/mL, 10 min, 100% = absence of PCI",68%
same,Kinase activity (%),[5]; [7],78% and 61% and 80% and 77%
same,Kinase activity (%),"[5]; basal, incubation with PCI 100 mg/mL, 10 min, 100% = absence of PCI",29%
same,kinase activity of the receptor under EGF,"[5]; highest dose of PCI, 50 μg/mL, with EGF",reduced to half the basal activity
same,Growth (Percentage in relation to the average of the controls),[6]; EGF 10 ng/mL + 50 mg/mL wtPCI,15.81%
same,Growth (Percentage in relation to the average of the controls),[6]; Insulin 5 mg/mL + 50 mg/mL wtPCI,26.34%
